Test results reported in patent US20180259527.

Biological target: T1, recombinant proclotting enzyme of Japanese horseshoe crab (His-tag free)
T1 chain: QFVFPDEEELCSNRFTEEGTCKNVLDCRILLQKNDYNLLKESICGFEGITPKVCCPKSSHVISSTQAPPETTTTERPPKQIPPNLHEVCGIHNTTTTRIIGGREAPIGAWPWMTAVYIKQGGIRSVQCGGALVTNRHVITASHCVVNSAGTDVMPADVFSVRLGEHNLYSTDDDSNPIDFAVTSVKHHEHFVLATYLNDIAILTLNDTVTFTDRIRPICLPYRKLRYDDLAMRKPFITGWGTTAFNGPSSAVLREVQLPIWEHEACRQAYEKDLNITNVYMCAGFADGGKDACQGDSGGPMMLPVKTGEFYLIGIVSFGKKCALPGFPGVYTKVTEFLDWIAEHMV

B1: His-tag-attached factor C (factor C of Japanese horseshoe crab of SEQ ID NO:2 with a 6xHis-tag at the C-terminus) (protein)
chain: RGVDLGLCDETRFECKCGDPGYVFNVPMKQCTYFYRWRPYCKPCDDLEAKDICPKYKRCQECKAGLDSCVTCPPNKYGTWCSGECQCKNGGICDQRTGACTCRDRYEGAHCEILKGCPLLPSDSQVQEVRNPPDNPQTIDYSCSPGFKLKGVARISCLPNGQWSSFPPKCIRECAKVSSPEHGKVNAPSGNMIEGATLRFSCDSPYYLIGQETLTCQGNGQWSGQIPQCKKLVFCPDLDPVNHAEHQVKIGVEQKYGQFPQGTEVTYTCSGNYFLMGFNTLKCNPDGSWSGSQPSCVKVADREVDCDSKAVDFLDDVGEPVRIHCPAGCSLTAGTVWGTAIYHELSSVCRAAIHAGKLPNSGGAVHVVNNGPYSDFLGSDLNGIKSEELKSLARSFRFDYVSSSTAGRSGCPDGWFEVEENCVYVTSKQRAWERAQGVCTNMAARLAVLDKDLIPSSLTETLRGKGLTTTWIGLHRLDAEKPFVWELMDRSNVVLNDNLTFWASGEPGNETNCVYLDIRDQLQPVWKTKSCFQPSSFACMMDLSDRNKAKCDDPGPLENGHATLHGQSIDGFYAGSSIRYSCEVLHYLSGTETVTCTTNGTWSAPKPRCIKVITCQNPPVPSYGSVEIKPPSRTNSISRVGSPFLRLPRLPLPLARAAKPPPKPRSSQPSTVDLASKVKLPEGHYRVGSRAIYTCESRYYELLGSQGRRCDSNGNWSGRPASCIPVCGRSDSPRSPFIWNGNSTEIGQWPWQAGISRWLADHNMWFLQCGGSLLNEKWIVTAAHCVTYSATAEIIDPSQFKIYLGKYYRDDSRDDDYVQVREALEIHVNPNYDPGNLNFDIALIQLKTPVTLTTRVQPICLPTDITTREHLKEGTLAVVTGWGLNENNTYSEMIQQAVLPVVAASTCEEGYKEADLPLTVTENMFCAGYKKGRYDACSGDSGGPLVFADDSRTERRWVLEGIVSWGSPSGCGKANQYGGFTKVNVFLSWIRQFIHHHHHH
Q: How did the “rate of increase in the absorbance at 405 nm (absorbance change rate), proclotting enzyme-activating capacity” value turn out when B1 was run?
A: activation of the proclotting enzyme was not observed or hardly observed in the His-tag-attached factor C solution containing the equal amount of factor C (0.7 µL), and even in the solution containing about 7 times the amount of factor C (5 µL)

B2: His-tag-free recombinant factor C of Japanese horseshoe crab Tachypleus tridentatus (protein)
chain: RGVDLGLCDETRFECKCGDPGYVFNVPMKQCTYFYRWRPYCKPCDDLEAKDICPKYKRCQECKAGLDSCVTCPPNKYGTWCSGECQCKNGGICDQRTGACTCRDRYEGAHCEILKGCPLLPSDSQVQEVRNPPDNPQTIDYSCSPGFKLKGVARISCLPNGQWSSFPPKCIRECAKVSSPEHGKVNAPSGNMIEGATLRFSCDSPYYLIGQETLTCQGNGQWSGQIPQCKKLVFCPDLDPVNHAEHQVKIGVEQKYGQFPQGTEVTYTCSGNYFLMGFNTLKCNPDGSWSGSQPSCVKVADREVDCDSKAVDFLDDVGEPVRIHCPAGCSLTAGTVWGTAIYHELSSVCRAAIHAGKLPNSGGAVHVVNNGPYSDFLGSDLNGIKSEELKSLARSFRFDYVSSSTAGRSGCPDGWFEVEENCVYVTSKQRAWERAQGVCTNMAARLAVLDKDLIPSSLTETLRGKGLTTTWIGLHRLDAEKPFVWELMDRSNVVLNDNLTFWASGEPGNETNCVYLDIRDQLQPVWKTKSCFQPSSFACMMDLSDRNKAKCDDPGPLENGHATLHGQSIDGFYAGSSIRYSCEVLHYLSGTETVTCTTNGTWSAPKPRCIKVITCQNPPVPSYGSVEIKPPSRTNSISRVGSPFLRLPRLPLPLARAAKPPPKPRSSQPSTVDLASKVKLPEGHYRVGSRAIYTCESRYYELLGSQGRRCDSNGNWSGRPASCIPVCGRSDSPRSPFIWNGNSTEIGQWPWQAGISRWLADHNMWFLQCGGSLLNEKWIVTAAHCVTYSATAEIIDPSQFKIYLGKYYRDDSRDDDYVQVREALEIHVNPNYDPGNLNFDIALIQLKTPVTLTTRVQPICLPTDITTREHLKEGTLAVVTGWGLNENNTYSEMIQQAVLPVVAASTCEEGYKEADLPLTVTENMFCAGYKKGRYDACSGDSGGPLVFADDSRTERRWVLEGIVSWGSPSGCGKANQYGGFTKVNVFLSWIRQFI
Q: Which “rate of increase in the absorbance at 405 nm (absorbance change rate), proclotting enzyme-activating capacity” value does the source give for B2 here?
A: the His-tag-free factor C showed a remarkable proclotting enzyme-activating capacity irrespective of whether it was obtained by the viral method or by the stably expressing cell line method
